From the supplement of paper PMC10567573
± gives the standard deviation.

Test: protein stability index of a GFP-peptide fusion (GPS, HEK-293T) (PSI 1-6); higher = more stable
[1] = treatment: DMSO, c terminus: a fixed tail appended
[2] = treatment: MLN4924 1 uM, 8 h, c terminus: a fixed tail appended
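Note: 24-mer peptide tiles fused after GFP, lentivirally expressed, FACS-sorted into six equal bins by GFP/DsRed ratio, decoded by Illumina sequencing, PSI is the read-weighted mean bin number.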

PDALSDVGEVPYWVLEPVLEGWRP [ELOA2]
protein stability index [1]: 3.07 ± 0.26
protein stability index [2]: 3.13 ± 0.54

SENCPKVISCEFAHNSNWYITFQS [LARP4]
protein stability index [1]: 2.21 ± 0.23
protein stability index [2]: 2.08 ± 0.27

AYFPYFKKHNVTAVVRLNKKIYEA [CDC14A]
protein stability index [1]: 2.34 ± 0.33
protein stability index [2]: 2.08 ± 0.16

ESFIKAIGVGLGFELQRLEFDLSP [AASDHPPT]
protein stability index [1]: 2.89 ± 0.77
protein stability index [2]: 2.84 ± 0.64

SLLQKVSPVAHKHLSRQKIDPLLY [TBC1D10A]
protein stability index [1]: 2.07 ± 0.19
protein stability index [2]: 2.24 ± 0.2

MVFSGLCPLLLGSVMAIERCIGVT [PTGFR]
protein stability index [1]: 3.4 ± 0.078
protein stability index [2]: 3.37 ± 0.41

GYLLSFHTPGGQNQEILLPGGITS [TNXB]
protein stability index [1]: 2 ± 0.36
protein stability index [2]: 2 ± 0.41

SFCLEDTECEGDIQKNYECANFGD [LOXL2]
protein stability index [1]: 5.14 ± 0.14
protein stability index [2]: 5.33 ± 0.2

TSVEEESFGPQPISRLEQCGINAN [RAD51]
protein stability index [1]: 4.63 ± 0.39
protein stability index [2]: 4.63 ± 0.18

PRQVSYTPQHHEKQYAMQRPNDDS [IQUB]
protein stability index [1]: 4.78 ± 0.22
protein stability index [2]: 4.77 ± 0.12

VAGNPQDTRLRYSFFVPRPTPSTP [ADAMTS4]
protein stability index [1]: 3.11 ± 0.36
protein stability index [2]: 3.18 ± 0.25

KGAILTTMLATRNFSAAKSLLNKK [CAMK2B]
protein stability index [1]: 2.91 ± 0.18
protein stability index [2]: 3.04 ± 0.24

NQGTQITVEDLFYNIATRRKALKN [MLH1]
protein stability index [1]: 3.29 ± 0.32
protein stability index [2]: 3.37 ± 0.48

YDVEMTDELVGLPFSSHTYSQASE [FBXO34]
protein stability index [1]: 4.52 ± 0.32
protein stability index [2]: 4.52 ± 0.23

EEEEEEEDEDDDSADMDESDEDDE [FBXO3]
protein stability index [1]: 5.37 ± 0.12
protein stability index [2]: 5.38 ± 0.15

PSRQYATLDVYNPFETREPPPAYE [SCAMP3]
protein stability index [1]: 3.95 ± 0.27
protein stability index [2]: 4.14 ± 0.21

WGVCEPQREEVEERMWAAIQSWDI [ZER1]
protein stability index [1]: 3.35 ± 0.22
protein stability index [2]: 3.56 ± 0.3

TDDRIVVPQRGRSTRVPVASVLI [SPNS1]
protein stability index (treatment: DMSO, c terminus: native): 2.64 ± 0.13
protein stability index (treatment: MLN4924 1 uM, 8 h, c terminus: native): 2.82 ± 0.42

SEGTNLNAPNSLGVSALCAICGDR [HNF4A]
protein stability index [1]: 3.88 ± 0.28
protein stability index [2]: 4.13 ± 0.26

LPATLVMTVPATAIYFTAYDQLKA [SLC25A39]
protein stability index [1]: 3.02 ± 0.33
protein stability index [2]: 3 ± 0.51

TTPPGHGTLDNSKSMKPYNYCSAY [NEUROD6]
protein stability index [1]: 3.27 ± 0.18
protein stability index [2]: 3.25 ± 0.17

KERILLVTDKTLLICKYDFIMLSC [TPRG1]
protein stability index [1]: 3.06 ± 0.42
protein stability index [2]: 2.61 ± 0.31

ARFVSSGSGGGYGGGMRVCGFGGG [KRT15]
protein stability index [1]: 2.63 ± 0.31
protein stability index [2]: 2.74 ± 0.25

DVNKTDHSQRTALHLAAQKALRTI [INVS]
protein stability index [1]: 3.06 ± 0.42
protein stability index [2]: 3.44 ± 0.43

LQKVLLMLVDGIDPNFKMEHQNKR [EHMT1]
protein stability index [1]: 2.62 ± 0.73
protein stability index [2]: 2.38 ± 0.33

GGVCCTVTLNFNVPGEFKQDVTVV [GFOD1]
protein stability index [1]: 2.94 ± 0.25
protein stability index [2]: 2.99 ± 0.16

GGGMRVCGFGGGAGSVFGGGFGGG [KRT15]
protein stability index [1]: 2.03 ± 0.33
protein stability index [2]: 1.94 ± 0.24

LQNMGLLLDKLAKENQDIRLLQAQ [PBXIP1]
protein stability index [1]: 2.82 ± 0.2
protein stability index [2]: 2.93 ± 0.35

AVAFMPEDITKGTQSLPTASASKF [AUP1]
protein stability index [1]: 4.22 ± 0.18
protein stability index [2]: 4.3 ± 0.16

AFLGPDEAFALPDSLLVVLDMDEG [SPSB4]
protein stability index [1]: 2.45 ± 0.39
protein stability index [2]: 2.6 ± 0.38

GIELMEVDPIGHLYIFATCLGLSY [MAGEA3]
protein stability index [1]: 2.72 ± 0.9
protein stability index [2]: 2.85 ± 1.2

LQIDNARLAADDFRTKFETEQALR [KRT17]
protein stability index [1]: 4.03 ± 0.24
protein stability index [2]: 4.27 ± 0.3

EDSRTSKESMSEADRAQKMDGESE [EHMT1]
protein stability index [1]: 5.5 ± 0.33
protein stability index [2]: 5.64 ± 0.23

LSEIFPGGIRGRAMALTSSMNWGI [SLC2A12]
protein stability index [1]: 1.91 ± 0.4
protein stability index [2]: 2.2 ± 0.097

QYSGMLDCARRILAREGVAAFYKG [SLC25A25]
protein stability index [1]: 2.38 ± 0.34
protein stability index [2]: 2.23 ± 0.055

HEDLLTRIGEATKPDGTVEQIGHI [NET1]
protein stability index [1]: 4.95 ± 0.13
protein stability index [2]: 4.93 ± 0.17
